{"source": "paper PMC9972320", "binders": {"B1": {"name": "ZIKV xrRNA2 (structured_RNA)", "RNA": "GAUAGUCAGGCCGAGAACGCCAUGGCACGGAAGAAGCCAUGCUGCCUGUGAGCCCCUCAGAGGACACUGAGU"}, "B2": {"name": "ZIKV xrRNA2 P2M/P4M (structured_RNA)", "RNA": "GAUAGUCAGGCCCGAAAGGCCAUGGCACGGAAGAAGCCAUGCUGCCUGUGAGCCCCUCCCGAAAGGGAGU"}, "B3": {"name": "DENV4 xrRNA mutant (DxM) (structured_RNA)", "RNA": "UGUAGUCAGGCCGAGAACGCCACGGUUUGAGCAAACCGUGCUGCCUGUAGCUCCGCCAAUAAUGGGAGGCG"}, "B4": {"name": "DENV4 xrRNA (structured_RNA)", "RNA": "UGAAGUCAGGCCACUUGUGCCACGGUUUGAGCAAACCGUGCUGCCUGUAGCUCCGCCAAUAAUGGGAGGCG"}}, "key": {"[1]": {"target": "MSI1 RRM12 K21A/F23A (human, UniProt O43347 20-191, K21A;F23A)", "sequence (O43347 20-191 K21A/F23A)": "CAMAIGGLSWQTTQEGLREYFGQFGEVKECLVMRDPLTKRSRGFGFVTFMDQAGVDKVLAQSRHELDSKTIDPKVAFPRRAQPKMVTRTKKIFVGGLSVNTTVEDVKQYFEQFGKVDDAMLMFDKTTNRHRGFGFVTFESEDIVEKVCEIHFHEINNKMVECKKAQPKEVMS", "assay": "ITC; not impaired; 3 mM MgCl2; ITC: 20 mM HEPES pH 7.5, 150 mM NaCl, 3 mM MgCl2, 25 C; 30 uM RNA in cell, 600 uM protein titrant", "conditions": "protein: recombinant; tags: GST tag removed by PreScission; three-way junction with P4 and pseudoknots"}, "[2]": {"target": "MSI1 RRM12 F63A/F65A (human, UniProt O43347 20-191, F63A;F65A)", "sequence (O43347 20-191 F63A/F65A)": "as the sequence (O43347 20-191 K21A/F23A) above, with A2K, A4F, F44A, F46A counted along it", "assay": "ITC; not impaired; 3 mM MgCl2; ITC: 20 mM HEPES pH 7.5, 150 mM NaCl, 3 mM MgCl2, 25 C; 30 uM RNA in cell, 600 uM protein titrant", "conditions": "protein: recombinant; tags: GST tag removed by PreScission; three-way junction with P4 and pseudoknots"}, "[3]": {"target": "MSI1 RRM12 (human, UniProt O43347 20-191)", "sequence (O43347 20-191)": "as the sequence (O43347 20-191 K21A/F23A) above, with A2K, A4F counted along it", "assay": "ITC; 3 mM MgCl2; ITC: 20 mM HEPES pH 7.5, 150 mM NaCl, 3 mM MgCl2, 25 C; […]", "conditions": "protein: recombinant, tags: GST tag (pGEX-6p-1) removed by PreScission"}}}
{"binder": "B1", "values": [{"measurement": "binding result", "setting": "[1]", "value": "binds"}, {"measurement": "binding result", "setting": "[2]", "value": "binds"}, {"measurement": "Kd", "setting": "[3]; three-way junction with P4 and pseudoknots", "value": "1.9 ± 0.8", "unit": "µM"}]}
{"binder": "B2", "values": [{"measurement": "binding result", "setting": "[3]; folded", "value": "no binding"}]}
{"binder": "B3", "values": [{"measurement": "Kd", "setting": "[3]; folded", "value": "2.54 ± 0.31", "unit": "µM"}]}
{"binder": "B4", "values": [{"measurement": "binding result", "setting": "[3]; folded", "value": "no binding"}]}
